Patent publication US20150337037A1 (MSM PROTEIN TECHNOLOGIES, published 2015)
Read-outs that look alike come from different tables or passages of the source.

T1: mouse CCR6 (mouse, UniProt O54689 1-367)
T1 construct: whole, on cells; gene derived from a cDNA library; also called CCR6 mouse
T1 sequence (looked up): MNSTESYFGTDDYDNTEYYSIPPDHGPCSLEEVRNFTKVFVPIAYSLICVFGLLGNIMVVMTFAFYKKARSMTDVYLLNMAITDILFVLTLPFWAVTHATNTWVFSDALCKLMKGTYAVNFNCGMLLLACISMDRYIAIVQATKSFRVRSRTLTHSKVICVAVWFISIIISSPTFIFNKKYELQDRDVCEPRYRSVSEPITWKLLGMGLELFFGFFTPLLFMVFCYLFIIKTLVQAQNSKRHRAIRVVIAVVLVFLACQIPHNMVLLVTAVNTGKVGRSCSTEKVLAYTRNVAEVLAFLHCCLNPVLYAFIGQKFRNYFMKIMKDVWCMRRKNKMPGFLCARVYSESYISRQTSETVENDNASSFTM

T2: human chemokine receptor CCR6 (human, UniProt P51684 1-374)
T2 construct: whole, on cells; gene was synthesized (codon-optimized); a C-terminal tag may be present on the expressed protein; also called CCR6 human; human CCR6
T2 sequence (looked up): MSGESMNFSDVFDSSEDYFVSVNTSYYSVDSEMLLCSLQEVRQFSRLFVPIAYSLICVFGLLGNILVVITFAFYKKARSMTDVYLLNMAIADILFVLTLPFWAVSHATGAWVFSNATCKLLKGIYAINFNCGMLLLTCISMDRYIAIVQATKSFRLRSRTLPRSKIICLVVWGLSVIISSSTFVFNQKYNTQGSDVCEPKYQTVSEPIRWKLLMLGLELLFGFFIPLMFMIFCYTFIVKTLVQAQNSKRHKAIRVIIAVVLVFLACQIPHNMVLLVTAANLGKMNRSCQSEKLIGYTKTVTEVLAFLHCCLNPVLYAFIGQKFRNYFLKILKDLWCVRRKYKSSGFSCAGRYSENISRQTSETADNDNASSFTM

T3: mouse CCR7 (mouse, UniProt P47774 25-378)
T3 construct: whole, on cells; also called CCR7ms
T3 sequence (looked up): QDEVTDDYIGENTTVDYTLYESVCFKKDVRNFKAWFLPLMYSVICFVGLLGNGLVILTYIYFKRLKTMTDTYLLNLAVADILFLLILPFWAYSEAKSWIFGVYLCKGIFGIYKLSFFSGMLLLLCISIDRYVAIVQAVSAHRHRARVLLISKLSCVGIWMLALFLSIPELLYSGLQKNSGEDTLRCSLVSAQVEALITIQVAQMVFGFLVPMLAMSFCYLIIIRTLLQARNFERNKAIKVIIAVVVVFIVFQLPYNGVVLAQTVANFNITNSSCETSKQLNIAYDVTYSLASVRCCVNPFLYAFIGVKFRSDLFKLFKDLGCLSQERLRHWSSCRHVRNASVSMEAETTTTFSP

T4: human CXCR2 (human, UniProt P25025 1-360)
T4 construct: whole, on cells
T4 sequence (looked up): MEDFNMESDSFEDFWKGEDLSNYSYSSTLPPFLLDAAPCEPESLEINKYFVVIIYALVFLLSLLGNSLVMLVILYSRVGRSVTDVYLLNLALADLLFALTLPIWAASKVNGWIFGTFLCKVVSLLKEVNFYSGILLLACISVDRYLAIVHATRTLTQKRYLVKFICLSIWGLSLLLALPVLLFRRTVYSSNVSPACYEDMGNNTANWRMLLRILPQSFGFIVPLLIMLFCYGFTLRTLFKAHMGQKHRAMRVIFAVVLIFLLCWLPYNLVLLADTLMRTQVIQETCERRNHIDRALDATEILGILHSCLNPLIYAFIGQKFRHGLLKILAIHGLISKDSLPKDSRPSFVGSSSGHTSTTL


Legend:
cynomolgus monkey CCR6 [1] = biological target: T5, cynomolgus monkey CCR6 (cynomolgus monkey (Macaca Fascicularis)); assay: flow cytometry on cells expressing the target, IgG1 titration (repeat of Table 2)
T5 construct: whole, on cells; gene derived from a total RNA library; also called CCR6 cyno; cyno CCR6

mouse CCR6 [2] = biological target: T1, mouse CCR6; assay: as above
[3] = biological target: T2, human chemokine receptor CCR6; assay: as above
cynomolgus monkey CCR6 [4] = biological target: T5, cynomolgus monkey CCR6; assay: flow cytometry on cells expressing the target, IgG1 titration, anti-human Fc-PE
mouse CCR6 [5] = biological target: T1, mouse CCR6; assay: as above
[6] = biological target: T2, human chemokine receptor CCR6; assay: as above
human CXCR6 [7] = biological target: T6, human CXCR6 (human, UniProt O00574 1-342); assay: flow cytometry on GPCR-expressing cell panel
T6 construct: whole, on cells
T6 sequence (O00574 whole entry): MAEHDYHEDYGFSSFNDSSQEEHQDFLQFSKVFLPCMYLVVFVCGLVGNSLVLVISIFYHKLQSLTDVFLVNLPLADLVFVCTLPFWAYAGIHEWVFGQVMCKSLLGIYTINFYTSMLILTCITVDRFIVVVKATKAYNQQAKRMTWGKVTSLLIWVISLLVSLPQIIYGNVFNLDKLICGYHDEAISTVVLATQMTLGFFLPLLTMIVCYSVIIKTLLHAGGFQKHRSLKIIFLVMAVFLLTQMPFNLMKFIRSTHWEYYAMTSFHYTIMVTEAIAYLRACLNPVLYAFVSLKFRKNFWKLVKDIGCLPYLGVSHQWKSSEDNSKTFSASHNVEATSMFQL

mouse CCR7 = biological target: T3, mouse CCR7; assay: flow cytometry on GPCR-expressing cell panel
human CXCR6 [8] = biological target: T6, human CXCR6; assay: flow cytometry on GPCR-expressing cell panel; remark: listed apart in the source
[9] = biological target: T2, human chemokine receptor CCR6; assay: cell-based or functional assay
[10] = biological target: T2, human chemokine receptor CCR6; assay: cell-based or functional assay; remark: listed apart in the source
cynomolgus monkey CCR6 [11] = biological target: T5, cynomolgus monkey CCR6; assay: flow cytometry on cells expressing the target, antibody titration
[12] = biological target: T2, human chemokine receptor CCR6; assay: as above
[13] = biological target: T2, human chemokine receptor CCR6; assay: cell-based or functional assay; remark: listed apart in the source
mouse CCR6 [14] = biological target: T1, mouse CCR6; assay: flow cytometry on cells expressing mouse CCR6
human CXCR2 = biological target: T4, human CXCR2; assay: flow cytometry on GPCR-expressing cell panel
mouse CCR6 [15] = biological target: T1, mouse CCR6; assay: flow cytometry on CHO cells expressing mouse CCR6
[16] = biological target: T2, human chemokine receptor CCR6; assay: flow cytometry on R1610 cells expressing human CCR6, IgG1 titration, anti-human Fc-PE

Row | EC50 (cynomolgus monkey CCR6 [1]) [nM] | EC50 (mouse CCR6 [2]) [nM] | EC50 [3] [nM] | EC50 (cynomolgus monkey CCR6 [4]) [nM] | EC50 (mouse CCR6 [5]) [nM] | EC50 [6] [nM] | Ca-Flux IC50, nM CCR6/CCL20 [9] [nM] | IC50, nM CCL20-Ca-Flux [10] [nM] | EC50 (cynomolgus monkey CCR6 [11]) [nM] | EC50 [12] [nM] | Binder | further results
1 | 2.2 | 30 | 1.5 | 2.2 | 30 | 1.5 | – | – | – | – | MSM-R621 IgG1 (antibody, V domains shown, Fully human IgG1) VH: EVQLLESGGGLVQPGGSLRLSCAASGFTFTTYYMHWVRQAPGKGLEWVSGIGPRGSWTGYADSVKGRFTISRDNSKNTLYLQMNSLRAEDTAVYYCARGRALVSNYSGLDYWGQGTLVTVSS VL: not shown | binding result (human CXCR6 [7]): binds
2 | 1.8 | 1.6 | 1 | 1.8 | 1.6 | 1 | 1.5 | 1.5 | – | – | MSM-R605 IgG1 (antibody, Fully human IgG1) heavy: not shown light: EIVLTQSPGTLSLSPGERATLSCRASQSVSSSYLAWYQQKPGQAPRLLIYGASSRATGIPDRFSGSGSGTDFTLTISRLEPEDFAVYYCQQSRATPLTFGQGTKVEIKRTVAAPSVFIFPPSDEQLKSGTASVVCLLNNFYPREAKVQWKVDNALQSGNSQESVTEQDSKDSTYSLSSTLTLSKADYEKHKVYACEVTHQGLSSPVTKSFNRGEC | binding result (mouse CCR7): binds; binding result (human CXCR6 [8]): binds
3 | 1.7 | 0.7 | 1.4 | 1.7 | 0.7 | 1.4 | 8.3 | 8.3 | – | – | MSM-R606 IgG1 (antibody, Fully human IgG1) heavy: not shown light: EIVLTQSPGTLSLSPGERATLSCRASQSVSSSYLAWYQQKPGQAPRLLIYGASSRATGIPDRFSGSGSGTDFTLTISRLEPEDFAVYYCQQSSYSPITFGQGTKVEIKRTVAAPSVFIFPPSDEQLKSGTASVVCLLNNFYPREAKVQWKVDNALQSGNSQESVTEQDSKDSTYSLSSTLTLSKADYEKHKVYACEVTHQGLSSPVTKSFNRGEC | –
4 | – | – | – | – | – | – | – | – | 2.9 | 2.6 | MSM-R627/33 (antibody, V domains shown, also called MSM 627 HC/JSJ R633LC) VH: EVQLLESGGGLVQPGGSLRLSCAASGFTISSYMAWVRQAPGKGLEWVSSISPSSGSTYYADSVKGRFTISRDNSKNTLYLQMNSLRAEDTAVYYCARSMWSKQMHRYGLDYWGQGTLVTVSS VL: EIVLTQSPGTLSLSPGERATLSCRASQSVSSSYLAWYQQKPGQAPRLLIYGASSRATDIPDRFSGSGSGTDFTLTISRLEPEDFAVYYCQQSYSDPITFGQGTKVEIK | IC50, nM (Ca-Flux) CCR6/CCL20 [13]: > 500 nM
5 | – | – | – | – | – | – | – | – | 7.5 | 7 | MSM-R633 (antibody, V domains shown) VH: EVQLLESGGGLVQPGGSLRLSCAASGFTFTSSYMAWVRQAPGKGLEWVSSIAPSSGSTYYADSVKGRFTISRDNSKNTLYLQMNSLRAEDTAVYYCARSRWEWYYHSSHGLDYWGQGTLVTVSS VL: EIVLTQSPGTLSLSPGERATLSCRASQSVSSSYLAWYQQKPGQAPRLLIYGASSRATDIPDRFSGSGSGTDFTLTISRLEPEDFAVYYCQQSYSDPITFGQGTKVEIK | binding result (mouse CCR6 [14]): no binding
6 | 2 | 1 | 1.2 | 2 | 1 | 1.2 | 13.5 | 13.5 | – | – | MSM-R607 IgG1 (antibody, V domains shown, Fully human IgG1) VH: EVQLLESGGGLVQPGGSLRLSCAASGFTFSSYYMHWVRQAPGKGLEWVSLIAPANSDTYYADSVKGRFTISRDNSKNTLYLQMNSLRAEDTAVYYCARSSYTRHSSKRGMDYWGQGTLVTVSS VL: EIVLTQSPGTLSLSPGERATLSCRASQSVSSSYLAWYQQKPGQAPRLLIYGASSRATGIPDRFSGSGSGTDFTLTISRLEPEDFAVYYCQQAAYSPITFGQGTKVEIKR | binding result (human CXCR6 [7]): binds
7 | – | – | – | – | – | – | – | – | 2.6 | 1.6 | MSM-R625 (antibody, human IgG1, kappa, V domains shown) VH: not shown VL: EIVLTQSPGTLSLSPGERATLSCRASQSVSSSYLAWYQQKPGQAPRLLIYGASSRATGIPDRFSGSGSGTDFTLTISRLEPEDFAVYYCQQYSYAPITFGQGTKVEIKR | binding result (mouse CCR6 [14]): no binding
8 | 3 | – | 2.5 | 3 | – | – | – | – | – | – | MSM-R614 IgG1 (antibody, V domains shown, Fully human IgG1) VH: EVQLLESGGGLVQPGGSLRLSCPASGFTFTRSAMSWVRQAPGKGLEWVSYINSSGGGTYYADSVKGRFTISRDNSKNTLYLQMNSLRAEDTAVYYCARARFIWGFDYWGQGTLVTVSS VL: EIVLTQSPGTLSLSPGERATLSCRASQSVSSSYLAWYQQKPGQAPRLLIYGASSRATGIPDRFSGSGSGTDFTLTISRLEPEDFAVYYCQQWYWAPVTFGQGTKVEIKR | binding result (human CXCR2): binds; binding result (mouse CCR6 [15]): no binding; EC50 [16]: 2.5 nM
9 | 2.5 | – | 1 | 2.5 | – | – | – | – | – | – | MSM-R615 IgG1 (antibody, V domains shown, Fully human IgG1) VH: EVQLLESGGGLVQPGGSLRLSCAASGFTFSSYYMHWVRQTPGKGLEWVSIISPWSSSTYYADSVKGRFTISRDNSKNTLYLQMNSLRAEDTAVYYCARSSYSWGESYKRAIDYWGQGTLVTVSS VL: EIVLTQSPGTLSLSHGERATLSCRASQSVSSSYLAWYQQKPGQAPRLLIYGASSRATGIPDRFSGSGSGTDFTLTISRLEPEDFAVYYCQQSYYSPVTFGQGTKVEIKR | binding result (mouse CCR6 [15]): no binding; EC50 [16]: 1 nM
